The target in experiment [1] is T1, human NMI (N-myc Interacting protein) (human, UniProt Q13287 1-307, limits assumed).
T1 construct: Immunogen and ELISA coating antigen; also called hNMI; antigen 1
T1 sequence (looked up): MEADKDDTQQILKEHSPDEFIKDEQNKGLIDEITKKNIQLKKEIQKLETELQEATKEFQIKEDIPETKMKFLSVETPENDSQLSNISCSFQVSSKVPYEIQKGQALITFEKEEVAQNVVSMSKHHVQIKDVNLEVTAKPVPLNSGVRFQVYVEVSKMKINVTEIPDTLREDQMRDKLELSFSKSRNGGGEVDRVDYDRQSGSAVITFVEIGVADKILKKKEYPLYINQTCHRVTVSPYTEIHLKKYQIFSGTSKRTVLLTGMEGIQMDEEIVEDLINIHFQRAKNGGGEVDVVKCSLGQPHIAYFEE
Kind of experiment: I-ELISA, hNMI coated 1 ug/mL; antibody 19.53125 ng/mL. On the technique in general: In an ELISA, binding on a coated surface is turned into a signal by an enzyme label.

Experiment [2] concerns the target T1, human NMI (N-myc Interacting protein). Description: sandwich ELISA; coating antibody 2.5 ug/mL, detection 94C4-biotin 0.5 ug/mL.
For experiment [3] the target is unchanged. Kind of experiment: I-ELISA, hNMI coated 1 ug/mL; antibody 78.125 ng/mL.
Experiment [4] has the same target. Kind of experiment: I-ELISA, hNMI coated 1 ug/mL; antibody 156.25 ng/mL.
For experiment [5] the target is unchanged. Description: I-ELISA, hNMI coated 1 ug/mL; antibody 2.4414063 ng/mL.
The target is the same in experiment [6]. Kind of experiment: indirect ELISA, human NMI coated; supernatant dilution series.
For experiment [7] the target is unchanged. Kind of experiment: I-ELISA, hNMI coated 1 ug/mL; antibody 1250 ng/mL.
Experiment [8] has the same target. Kind of experiment: I-ELISA, hNMI coated 1 ug/mL; antibody 2500 ng/mL.
Experiment [9] shares this target. Description: indirect ELISA, human NMI coated (repeats Table 3).
Experiment [10] has the same target. Description: I-ELISA, hNMI coated 1 ug/mL; antibody 312.5 ng/mL.
Experiment [11] shares this target. Description: I-ELISA, hNMI coated 1 ug/mL; antibody 1.2207031 ng/mL.
The target is the same in experiment [12]. Description: I-ELISA, hNMI coated 1 ug/mL; antibody 625 ng/mL.
The target is the same in experiment [13]. Kind of experiment: I-ELISA, hNMI coated 1 ug/mL; antibody 4.8828125 ng/mL.
Experiment [14] has the same target. Description: I-ELISA, hNMI coated 1 ug/mL; antibody 9.765625 ng/mL.
Experiment [15] has the same target. Kind of experiment: I-ELISA, hNMI coated 1 ug/mL; antibody 39.0625 ng/mL.

From patent publication EP4682166A1 (Guangzhou Enmai Biotechnology Co., Ltd, dated 2026) come the findings set out here.

B1: 240B10-1 (antibody, V domains shown)
VH: QSLEESGGRLVTPGGSLTLTCTVSGIDLSSYTMGWVRQAPGKGLEYIGIISGGGRTYYASWAKGRFTISKTSSTTVDLKVTSLTTEDTATYFCARIYTLWGQGTLVTVSS
VL: QVLTQTLASVSAAVGGTVTINCQSSQSVYNNDYLAWFQQKSGQPPKQLIHSASKLASGVPSRFKGSGSGTQFTLTINDVQCDDAATYYCLGGYDCYSADCNVFGGGTEVVVK
notes: Rabbit monoclonal antibody; also called 240B10-1-biotin (biotin-labelled form)
For the molecule B1, the OD450 worked out at 0.573 OD450 in experiment [1]; 1.46 OD450 in experiment [3]; 1.85 OD450 in experiment [4]; 0.105 OD450 in experiment [5]; 2.13 OD450 in experiment [7]; 2.15 OD450 in [8]. Moreover, the OD450 came to 2.19 OD450 in experiment [10]; 0.077 OD450 in [11]; 2.2 OD450 in experiment [12]; 0.163 OD450 in experiment [13]; 0.333 OD450 in experiment [14]; 0.996 OD450 in experiment [15]. Moreover, the “detection limit (sensitivity)” value in [2] was 60 pg/mL. In addition, the EC50 in experiment [6] and in experiment [9] was 2.6 ng/mL in each case.
